One may read the Kd as the equilibrium constant for the complex coming apart. Lower therefore signals a tighter complex.

To fix the notation:
B1: trp RNA binding Attenuation Protein (TRAP), wild type, 11mer (natural protein, B. subtilis, UniProt P19466 1-75, looked up)
chain: MNQKHSSDFVVIKAVEDGVNVIGLTRGTDTKFHHSEKLDKGEVIIAQFTEHTSAIKVRGEALIQTAYGEMKSEKK
notes: 11 identical subunits of 75 amino acids in a ring; also called WT TRAP; TRAP 11mer; copies: 11
B2: His-tagged N20C (Asn20 replaced with Cys) TRAP (natural protein, B. subtilis, UniProt P19466 1-75, looked up)
chain: B1 chain with N20C
notes: TRAP of Bacillus subtilis (mtrB), 75 amino acid subunit, with Asn20 replaced by Cys; six histidine residues at the carboxy terminus of each subunit; Cross-linking was done in the presence of 1 mM tryptophan; also called N20C TRAP; N20C TRAP 11mer; source: purified using Ni-agarose; not shown: His6, C-terminal, kept; copies: 11
B3: Anti-TRAP (AT), wild type, trimer (natural protein)
chain: MVIATDDLEVACPKCERAGEIEGTPCPACSGKGVILTAQGYTLLDFIQKHLNK
B4: AT containing a Cys substitution at residue 7 (D7C AT) (natural protein, B. subtilis, UniProt O31466 1-53, looked up)
chain: B3 chain with D7C
notes: Anti-TRAP (AT) of Bacillus subtilis with Asp7 replaced by Cys; source: purified as described by Chen and Gollnick (19)

The target of series [1] is T1, TRAP-AT = 1:1 complex, (N20C)1(WT)10 TRAP 11mer crosslinked with BMOE to one D7C AT trimer N20C;D7C (Bacillus subtilis) (UniProt P19466+P19466+O31466).
T1 sequence 1: B1 chain
T1 sequence 2: B1 chain with N20C
T1 sequence 3: B3 chain with D7C
In words: filter binding. The note with it: Filter binding: 16 mM Tris pH 8.0, 250 mM KCl, 1 mM tryptophan, 10 ug yeast RNA, 37 C, 20 min. Pull-down: 20 mM Tris-HCl pH 8.0, 6 mM MgCl2, 2 mM DTT, 100 mM ….

Series [2] deals with T2, TRAP (trp RNA binding Attenuation Protein), WT (Bacillus subtilis) (UniProt P19466).
T2 sequence: B1 chain
Nature of the series: filter binding. To be noted: Filter binding: 16 mM Tris pH 8.0, 250 mM KCl, 1 mM tryptophan, 10 ug yeast RNA, 37 C, 20 min. Pull-down: 20 mM Tris-HCl pH 8.0, 6 mM MgCl2, 2 mM DTT, 100 mM ….

Series [3] addresses T2, TRAP (trp RNA binding Attenuation Protein), WT (Bacillus subtilis). Nature of the series: pull-down of blocked TEC, immunoblot. The note with it: Filter binding: 16 mM Tris pH 8.0, 250 mM KCl, 1 mM tryptophan, 10 ug yeast RNA, 37 C, 20 min. Pull-down: 20 mM Tris-HCl pH 8.0, 6 mM MgCl2, 2 mM DTT, 100 mM …. (In western blotting, separated proteins are transferred to a membrane and probed.)

In series [4] the target is B2. Nature of the series: pull-down; limiting His-tagged N20C TRAP mixed with 50-fold excess WT TRAP, denatured in 5 M guanidine-HCl 1 h at room temperature, renatured by dialysis in 50 mM phosphate pH 8.0; hetero-11mers held on Ni agarose. The note with it: both partners purified.
Series [5] deals with the molecule itself. In words: cross-linking; BMOE (0.04 mM, 8 Å sulfhydryl cross-linker); N20C TRAP 0.02 mM and/or D7C AT 0.08 mM; 1 mM tryptophan; PBS pH 7.2, 0.5 mM EDTA; 37°C 1 h; 15% SDS gel, Coomassie.
The target of series [6] is T3, trp RNA binding Attenuation Protein (TRAP), wild type, 11mer (B. subtilis) (UniProt P19466).
T3 sequence: B1 chain

Where a chain is given by its changes, count along the chain named. Names and notes keep the numbering of the source.

With “GAGUUGAGUUGAGUUGAGUUGAGUUGAGUUGAGUUGAGUUGAGUUGAGUUGAGUU [(GAGUU)11 RNA]”, the Kd amounted to 3.7 nM in series [1] and 0.55 nM in series [2].
In series [3], “Δ9-11Eco116 nascent trp leader RNA (7 repeats exposed)” came in with a binding signal of 100 % TRAP bound.
For “Δ10-11Eco116 nascent trp leader RNA (8 repeats exposed)”, the binding signal in series [3] is 100 % TRAP bound.
For “Eco116 nascent trp leader RNA (~11 repeats exposed)”, in series [3], the binding signal was found to be 100 % TRAP bound.
As for B1, in series [4], the binding result is “binds”.
As for B2, the binding result in series [5] was “binds”.
With B3, the in vitro transcription attenuation, Eco116 template; percent of transcripts terminated when AT was added after TRAP had bound the nascent transcript (post) in series [6] is 80%.
For the molecule B4, in series [5], the binding result is on record as “binds”.

For the origin of these results see paper PMC4027176, “Modulating TRAP-mediated transcription termination by AT during transcription of the leader region of the Bacillus subtilis trp operon” (Nucleic Acids Research, 2014).
